Assay results as given in the supplement of paper PMC9170038.

tested on: K4 kissing-loop RNA reporter; experiment: apparent KD of K4 kissing-loop reporter; higher = weaker reporter binding; settings: Eterna round: R107; input ligand: none
Method: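 RNA-MaP round R107: designed RNA switches with theophylline, tryptophan, arginine or FMN aptamers are transcribed on-chip within common flanks. They are titrated with a labelled K4 kissing-loop RNA reporter in RNA-MaP buffer (100 mM Tris pH 7.5, 80 mM KCl, 4 mM MgCl2), without ligand or with the indicated ligand. Median apparent KD per design.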
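Also: bound reporter read as fluorescence of individual clusters on recovered sequencing chips by microscopy, with normalized cluster intensities fitted with a binding model.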

Point of comparison: “UCAAACGAUGGAAGGAGCGCUCGUCAGUCCUGCGAGUGAUGUUCGUGGGUAAAUAGUCGCGAGCAGGUAGGUCGCCAUCUUAAGC [Bisodi]”, “apparent KD of K4 kissing-loop reporter” value 118 nM. Against it:
- GGUAGCAUGGCGGCCGCCACUACAAGUAGUGACCCAAGUGAUGUUUGGAAGCGGGUCCUAAUUGGUAGGACCGGGCCAUGCUACC — 4.2-fold higher, 496 nM
- AGGAUGUAGUGAUGUUAUAUAAGAAGUAAACGAGGACCGGUACGGCCGCCACUCGAAGCGGCUACUAGCGCGUUGCGAGGUGUGC [ExTryptoA.Ce] — 4.9-fold higher, 581 nM
- AUUAAUUUCAGAGGAUAUCGUAAUUUUAUUUAAUUUAUUCAUUUAUGCAGUGAUGUUGCUAAUAUUCGAGAAGGCUGAUUUAUAA [JR_ExcFMNB_Sub007] — 2.1-fold lower, 55.8 nM
- CGCACACUUGUUGAUACCAGAAGCCGACCGGAAACAUCAUUGAGUGAUGUUCAAGCUGUUUUCCCUUGGCAGCAAACGAGUGGUC [theeternabot_exclusion_KL_Theo_B_22] — within 1.5-fold, 138 nM
- GGGCUGGUGCUAGGAUAUGCGAUGAAUGCUCAGGAAACCUUGAGUCCGCAGUGAUGUUGCGGCACCGCAGAAGGAGCUUAGGCUC [Esbequ] — 1.9-fold higher, 222 nM
- CAUAUAUACACUAACCCGUACGGUAGUAAGCGAGGACCGGUACGGCCGCCACUCGAUCGUUUCGUGUUAGCACCAGUGAUGUUGG [theeternabot_sameState_KL_Trp_A_3] — 4.5-fold higher, 526 nM
- CCAGCGGGCACGGCCGCCACUCUCUCGAGUGAUGUUUGCGGAGUCAGGCCGGCUCAGUACGUCACGAGGACCGGGUGCAAUUUAC [theeternabot_exclusion_KL_Trp_B_40] — 7-fold higher, 829 nM
- ACGUAUAUCAGAGGAUAUCGUAUUAAUAUUUUAUCUAUAUAUAUAUGCAGUGAUGUUGCUAUAAUUCGAGAAGGCUGAUUUACGA [JR_ExcFMNB_Sub011] — within 1.5-fold, 84 nM
- UUUAUAAAGUCGGCCGCCACUGGAUUUAUAUUUGUUUAAUCUGGAUCAAAGUGAUGUUUUGAGUCCAGGACCGGGACAUUUGUUA [JR_ExcTryptoB_Sub002] — within 1.5-fold, 124 nM
- GAGGGCCCUGUAGGAUAUGAGUCUAGUGAUGUUAGGCGGUCCAUGCGCGUGGCGCGUUAUGCCCUUUUAGAAGGACAGGGCUCUC [#2 Exclusion - FMN B Attempt #21 (HarryS)] — within 1.5-fold, 82.4 nM
- ACGCUAGCUACCGAAAGGUAGCUAGCGAGUGAGGAUAUGUGGAAACACAGAAGGCACAGCGCAGUGAUGUUGUGCGGCGGAAGCG [whbob_SS_FMNA__2th168] — 5.3-fold higher, 631 nM
- UGUGAUGAGUAGAGUGAUGUUUUGAAGGAUACCAGAGUGUUGUUAUUCCCUUGGCAGCUUGAGUGAUGUUUGAUGUUGUUGUUGU [rcrrmullin] — 2.1-fold higher, 253 nM
- UAGUGGUAGACCAGAUCUACCACUAGGGAUACCAGCCUCGGUCGAGGCCCUUGGCAGCCCAGCGGGUCCAGUGAUGUUGGAUGUC [Raanza] — 2.7-fold higher, 322 nM
- AUGUGGAGCGACGUUUAGAGAAACCGGGAAGGAGCGCGGAUAACCGCAGGUAGGUCGCCUGGUUGCCAGUGAUGUUGGCGACGUG [Exclusion Arg A GF 25] — within 1.5-fold, 144 nM
- UGUCAUUGGUCUGAUACCAGUUAGACCGAUAGGUCAAAACUGGAGUGAUGUUCCCAAAAUAACCCUUGGCAGCAGACCGAUGACU [TheoBS 3 #SwitchBubble #StaticStem] — within 1.5-fold, 152 nM
- UGAUACCAGACGGCCGCCACUCCCGUAAGUCAAAGACUUACGAAGAGAAUCGUCCAGUGAUGUUGGAGGACCGGGUCUGGUAUCU [FiskerMod 11 - Jieux - Exclusion - Tryptophan B] — 6.9-fold higher, 818 nM
- UGUGUUUACCUGACUCAGUGAUGUUGAGAAGGAGCGUGGGAAACCACAGGUAGGUCGCUCAACCUAAAUUCAGGUGAGCACUAAA — 3.4-fold higher, 399 nM
- UGAUACCAGACUGAUACCAGCCACAGAGUCAAGACUCUGAUAAAGGUAACCAGUGAUGUUGGCCCUUGGCAGCAGUCUGGUAUCU [TheoBX 16 #SwitchBubble #StaticStem] — within 1.5-fold, 166 nM
- GGUGUUGUUUGUGCUGUUUUCUUCGUUUCUCGAGGACCGGUACGGCCGCCACUCGAGUGAUGUUUGGGUAGCGAUCUUUGUUAGU [Bdazzled - #4- Exc. Tryptophan A] — 2.9-fold higher, 345 nM
- CCAGAAUAAUGAAGAUGAUAAAUUACUGAAGGAGCGCAUAUAGUUGCAGGUAGGUCGCGGUGAAUAAGUAUAGUGAUGUUAUACC [SSArgA.Ad] — 2.2-fold higher, 256 nM
- AAGUGUGUGGCGGCCGCCACUAGAAUCCAGUGAUGUUGGAGUUAUCAUGUAAAUGAUAAUCAACAUAGGACCGGGCCAUAUAGAA [Same State - Tryptophan B (Freestyle 8)] — 5.9-fold higher, 701 nM

same assay, conditions: Eterna round: R107; input ligand: theophylline 20 uM

Point of comparison: “AUGGGCGAGGUAACGUGGAUAUCUCGUCGCAAGGAUAUCUGGAAACAGAGAAGGUGCUACAUUACCGGCAGUGAUGUUGCUGACC”, “apparent KD of K4 kissing-loop reporter” value 263 nM. Against it:
- AUUUUGGUUGAAGGAUAUUCUCCCAUCGACGCGAUAAGAUACUUUGGAAGGUUUGCAGUGAUGUUGGAAGAAGGUCAAAGUUGUA [theeternabot_exclusion_KL_FMN_B_22] — 2.6-fold higher, 689 nM
- ACGAUCAUGGCAGGAUAUACGAAUGCAUUAGGGCUGCCAGUGAUGUUGGUGGACCGAGGACGUAGAGUAGAAGGGCCGACUUAAA [Leonmain] — 3-fold lower, 86.4 nM
- GUAUAUUAGGGAGACCUAAUAUAAAUAGAAGGAGCGUAGGAAACUACAGGUAGGUCGCUAAAUAUACAGUGAUGUUGUAUAAUGG [arg a same] — within 1.5-fold, 195 nM
- UUAGAGAUCUCAGGAUAUCAGUGAUGUUGUAAUCCAGAUCUGAGAUAGAAUUCUAUCUCAGAUCAAUGAGAAGGGAGAUCUCAUU [AK4.2 Exc FMN B] — 2.2-fold higher, 576 nM
